Data from US20250382373A1 (BIOCYTOGEN PHARMACEUTICALS BEIJING, published 2025).

Tests used:
[1] = biological target: T1, monkey MET on fasMET-NIH3T3 cells (monkey (Macaca fascicularis)); assay: flow cytometry on fasMET-NIH3T3 cells (0.18% positive cells)
[2] = biological target: T2, human MET on SNU-5 cells (human, UniProt P08581 25-1390); assay: flow cytometry on SNU-5 cells
T2 construct: whole, on cells; Endogenous MET of SNU-5 cells

[3] = biological target: T1, monkey MET on fasMET-NIH3T3 cells; assay: flow cytometry on fasMET-NIH3T3 cells
[4] = biological target: human MET on hMET-NIH3T3 cells (human, UniProt P08581 25-1390); assay: flow cytometry on hMET-NIH3T3 cells
human MET on hMET-NIH3T3 cells, sequence (P08581 25-1390 limits assumed): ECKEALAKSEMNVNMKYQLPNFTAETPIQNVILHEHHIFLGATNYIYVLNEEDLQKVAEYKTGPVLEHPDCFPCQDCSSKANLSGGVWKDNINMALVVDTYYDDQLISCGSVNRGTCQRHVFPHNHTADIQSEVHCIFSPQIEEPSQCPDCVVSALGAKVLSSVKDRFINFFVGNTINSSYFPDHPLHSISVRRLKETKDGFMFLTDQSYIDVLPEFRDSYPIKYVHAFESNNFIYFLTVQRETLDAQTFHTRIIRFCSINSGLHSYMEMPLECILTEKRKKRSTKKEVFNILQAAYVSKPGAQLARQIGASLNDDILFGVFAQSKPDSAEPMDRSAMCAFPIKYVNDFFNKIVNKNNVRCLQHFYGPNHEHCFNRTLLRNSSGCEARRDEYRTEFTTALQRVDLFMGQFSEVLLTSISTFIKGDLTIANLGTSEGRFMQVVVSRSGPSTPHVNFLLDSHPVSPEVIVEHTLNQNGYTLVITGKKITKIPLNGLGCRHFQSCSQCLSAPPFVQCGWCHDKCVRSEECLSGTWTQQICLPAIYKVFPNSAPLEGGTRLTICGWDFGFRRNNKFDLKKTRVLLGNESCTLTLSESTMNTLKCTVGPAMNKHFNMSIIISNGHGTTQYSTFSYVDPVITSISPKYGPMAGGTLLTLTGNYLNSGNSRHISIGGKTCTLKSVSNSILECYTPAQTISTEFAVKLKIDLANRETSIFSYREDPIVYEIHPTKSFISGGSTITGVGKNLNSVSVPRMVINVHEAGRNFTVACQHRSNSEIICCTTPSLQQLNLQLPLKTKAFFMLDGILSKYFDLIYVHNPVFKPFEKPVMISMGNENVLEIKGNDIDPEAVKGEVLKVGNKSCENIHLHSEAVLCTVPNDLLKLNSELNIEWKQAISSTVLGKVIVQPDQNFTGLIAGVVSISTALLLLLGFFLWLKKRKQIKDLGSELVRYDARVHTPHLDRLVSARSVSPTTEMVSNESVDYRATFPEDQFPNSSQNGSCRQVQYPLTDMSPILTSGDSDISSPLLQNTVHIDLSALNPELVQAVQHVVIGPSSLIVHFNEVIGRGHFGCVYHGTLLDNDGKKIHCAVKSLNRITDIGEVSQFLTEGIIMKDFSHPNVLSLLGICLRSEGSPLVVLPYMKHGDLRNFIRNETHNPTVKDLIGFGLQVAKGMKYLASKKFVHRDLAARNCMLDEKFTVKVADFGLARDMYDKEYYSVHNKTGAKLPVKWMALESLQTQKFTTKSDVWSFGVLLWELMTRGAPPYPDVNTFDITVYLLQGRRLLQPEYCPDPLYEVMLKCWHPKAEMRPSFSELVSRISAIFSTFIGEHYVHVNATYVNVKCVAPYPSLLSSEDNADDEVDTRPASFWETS

[5] = biological target: T3, dog MET on dMET-NIH3T3 cells (dog (Canis lupus, printed 'Cans lupus'), UniProt Q75ZY9 25-1382); assay: flow cytometry on dMET-NIH3T3 cells (5.33% positive cells)
T3 construct: also called dMET-NIH13T3 [sic]

[6] = biological target: T4, His-tagged dog MET (dog, UniProt Q75ZY9 25-933, limits assumed); assay: SPR (Biacore 8K), antibody on Protein A chip; legend: - means no binding
T4 construct: Bought protein; also called dMET-His; not shown: His tag

[7] = biological target: T5, His-tagged human MET protein (human, UniProt P08581 25-932); assay: SPR (Biacore 8K), antibody on Protein A chip
T5 construct: Bought protein; also called hMET-His; not shown: His tag
T5 sequence (P08581 25-932 limits assumed): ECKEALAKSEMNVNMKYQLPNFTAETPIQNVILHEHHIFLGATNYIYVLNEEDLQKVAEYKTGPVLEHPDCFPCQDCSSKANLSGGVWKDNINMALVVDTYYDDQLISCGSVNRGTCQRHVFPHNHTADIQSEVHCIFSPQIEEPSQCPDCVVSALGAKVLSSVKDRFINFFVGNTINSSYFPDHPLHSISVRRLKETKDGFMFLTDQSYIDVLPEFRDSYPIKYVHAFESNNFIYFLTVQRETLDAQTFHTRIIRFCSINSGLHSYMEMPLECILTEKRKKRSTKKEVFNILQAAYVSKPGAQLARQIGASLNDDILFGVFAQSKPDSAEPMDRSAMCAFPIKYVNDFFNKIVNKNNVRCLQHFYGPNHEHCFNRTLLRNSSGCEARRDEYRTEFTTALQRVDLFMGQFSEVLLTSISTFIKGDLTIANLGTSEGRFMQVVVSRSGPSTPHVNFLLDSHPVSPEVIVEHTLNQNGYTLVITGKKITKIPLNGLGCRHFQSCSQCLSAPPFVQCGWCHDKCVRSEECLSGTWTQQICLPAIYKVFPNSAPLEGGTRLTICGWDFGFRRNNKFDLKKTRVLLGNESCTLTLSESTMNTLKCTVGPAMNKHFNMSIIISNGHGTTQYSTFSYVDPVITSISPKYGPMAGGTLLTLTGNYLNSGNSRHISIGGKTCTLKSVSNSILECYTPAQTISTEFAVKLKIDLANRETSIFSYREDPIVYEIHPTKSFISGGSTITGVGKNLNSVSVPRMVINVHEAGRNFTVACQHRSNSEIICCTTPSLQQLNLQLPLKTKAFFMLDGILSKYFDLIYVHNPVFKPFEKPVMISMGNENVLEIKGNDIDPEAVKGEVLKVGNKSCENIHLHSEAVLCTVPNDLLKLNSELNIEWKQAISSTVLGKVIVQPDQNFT

[8] = biological target: T3, dog MET on dMET-NIH3T3 cells; assay: flow cytometry on dMET-NIH3T3 cells
[9] = biological target: T4, His-tagged dog MET; assay: SPR (Biacore 8K), antibody on Protein A chip
[10] = biological target: T3, dog MET on dMET-NIH3T3 cells; assay: flow cytometry on dMET-NIH3T3 cells (1.44% positive cells)
[11] = biological target: T4, His-tagged dog MET; assay: SPR (Biacore 8K), antibody on Protein A chip; remark: listed apart in the source
[12] = biological target: T5, His-tagged human MET protein; assay: SPR (Biacore 8K), Protein A chip
[13] = biological target: T6, His-tagged monkey EGFR protein (monkey (crab-eating macaque; Macaca …, UniProt A0A2K5WK39 25-645); assay: SPR (Biacore 8K), Protein A chip
T6 construct: also called fasEGFR-His; not shown: His tag

[14] = biological target: T7, His-tagged human EGFR protein (human, UniProt P00533 25-645); assay: SPR (Biacore 8K), Protein A chip
T7 construct: Bought protein; also called hEGFR-His; not shown: His tag

T1 sequence (chain, as listed by the source limits assumed): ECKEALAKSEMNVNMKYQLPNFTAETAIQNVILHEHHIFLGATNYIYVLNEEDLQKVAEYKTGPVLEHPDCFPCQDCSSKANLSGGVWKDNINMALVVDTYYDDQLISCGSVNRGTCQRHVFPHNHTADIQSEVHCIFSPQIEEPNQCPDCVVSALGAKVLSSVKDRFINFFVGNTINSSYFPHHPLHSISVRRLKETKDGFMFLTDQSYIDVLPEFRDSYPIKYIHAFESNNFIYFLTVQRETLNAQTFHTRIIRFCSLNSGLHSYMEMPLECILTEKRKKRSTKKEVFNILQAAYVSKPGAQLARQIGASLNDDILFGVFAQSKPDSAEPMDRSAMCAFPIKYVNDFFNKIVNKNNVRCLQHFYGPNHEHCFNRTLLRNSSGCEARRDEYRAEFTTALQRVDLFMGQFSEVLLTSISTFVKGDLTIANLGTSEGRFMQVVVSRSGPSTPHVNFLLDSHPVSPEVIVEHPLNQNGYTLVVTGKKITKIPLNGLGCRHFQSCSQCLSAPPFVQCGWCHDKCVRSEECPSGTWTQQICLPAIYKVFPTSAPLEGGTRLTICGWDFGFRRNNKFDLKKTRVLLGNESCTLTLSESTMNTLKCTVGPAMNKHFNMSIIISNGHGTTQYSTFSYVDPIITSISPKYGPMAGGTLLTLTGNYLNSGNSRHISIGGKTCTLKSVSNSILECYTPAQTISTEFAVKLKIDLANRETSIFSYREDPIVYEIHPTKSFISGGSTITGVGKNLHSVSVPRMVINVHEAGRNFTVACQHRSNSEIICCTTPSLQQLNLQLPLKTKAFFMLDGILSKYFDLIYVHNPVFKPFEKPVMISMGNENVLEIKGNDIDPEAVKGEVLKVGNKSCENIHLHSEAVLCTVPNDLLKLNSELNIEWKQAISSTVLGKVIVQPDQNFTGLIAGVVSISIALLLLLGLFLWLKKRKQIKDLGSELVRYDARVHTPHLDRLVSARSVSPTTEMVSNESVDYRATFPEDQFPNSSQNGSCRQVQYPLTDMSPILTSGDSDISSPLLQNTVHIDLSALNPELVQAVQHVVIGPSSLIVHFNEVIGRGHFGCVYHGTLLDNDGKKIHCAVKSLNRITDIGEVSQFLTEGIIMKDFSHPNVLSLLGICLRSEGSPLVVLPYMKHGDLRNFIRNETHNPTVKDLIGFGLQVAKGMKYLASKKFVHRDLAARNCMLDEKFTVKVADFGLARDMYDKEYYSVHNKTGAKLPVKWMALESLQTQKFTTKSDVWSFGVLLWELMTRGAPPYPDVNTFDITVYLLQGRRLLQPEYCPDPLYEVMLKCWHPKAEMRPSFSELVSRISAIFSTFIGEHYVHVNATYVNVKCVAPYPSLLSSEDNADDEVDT
T2 sequence (P08581 25-1390): as the sequence (P08581 25-1390 limits assumed) above

Row | Binder | binding result [1] | Percentage of Positive Cells [2] [%] | Percentage of Positive Cells [3] [%] | Percentage of Positive Cells [4] [%] | binding result [5] | binding result [6] | Kd [7] [µM] | koff [7] [s⁻¹] | kon [7] [M⁻¹ s⁻¹] | Percentage of Positive Cells [8] [%] | Kd [9] [µM] | koff [9] [s⁻¹] | kon [9] [M⁻¹ s⁻¹] | binding result [10] | binding result [11] | Kd [12] [µM] | koff [12] [s⁻¹] | kon [12] [M⁻¹ s⁻¹] | binding result [13] | binding result [14]
1 | M-2F12 (antibody, V domains shown) VH: QVQLVQSGGGVVQPGRSLRLSCAASGFTFNNYGMDWVRQAPGKGLEWVAVIWNDGSKKYYGDFVKGRFTISRDNSKNTLYLEMNSLRAEDTAVYYCARDLEGGQLADAFDVWGQGTMVTVSS VL: not shown | no binding | 95.6 | – | – | – | – | – | – | – | – | – | – | – | – | – | – | – | – | – | –
2 | M-6D12 (antibody, V domains shown) VH: QVQLQQSGPGLVKPSGTLSLTCAVSGGSISKSNWWTWVRQPPGKGLEWIGEIHHSGSTNYNPSLKSRVTISVEKTKNQFSLKLSSVTAADTAVYYCARGGGYGYDFDYWGQGTLVTVSS VL: not shown | – | – | 71.4 | 99.8 | no binding | no binding | 0.0606 | 0.00237 | 39100 | – | – | – | – | – | – | – | – | – | – | –
3 | M-6E6 (antibody, V domains shown) VH: QVQLEQSGPTLVKPTQTLTLTCTFSGFSLSSTGVAMGWIRQPPGKALEWLALIYWDDDKHYSPSLESRLTITKDTFKNQVVLSMTNMDPLDTATYYCTHRRYTGYEDYWGQGILVTVSS VL: not shown | – | – | 49.2 | 99.2 | – | – | 0.0101 | 0.000634 | 62500 | 73.2 | 0.253 | 0.0175 | 69000 | – | – | – | – | – | – | –
4 | M-7D3 (antibody, V domains shown) VH: QVQLVQSGLTLVKPTQTLTLTCTFSGFSLSTTGVSVGWIRQPPGKALEWLALIYWDDDKHYSPSLKSRLTITKDTSKNQVVLTMTNMDPVDTATYYCAPGGYSSGWPGFYDLWGRGTLVTVSS VL: not shown | – | – | 63.4 | 99.6 | – | – | 0.0116 | 0.000684 | 59100 | 74.7 | 0.0623 | 0.00343 | 55000 | – | – | – | – | – | – | –
5 | M-8E2 (antibody, V domains shown) VH: QVQLVQSGPALVKPTQTLTLTCTFSGFSLYTSGVAVAWIRQPPGKALEWLALIYWDDDKWYTPSLKTRLSITKDTSKNQVVLTMTNMDPVDTATYYCAHRGSFNWNYGYFDYWGQGTLVTVSS VL: not shown | – | – | 62.2 | 99.6 | – | – | 0.0131 | 0.000683 | 52200 | 78.8 | 0.05 | 0.00384 | 76900 | – | – | – | – | – | – | –
6 | M-8H10 (antibody, V domains shown) VH: QVQLQQWGAGLLKPSETLSLTCAVYGGSFSGYYWTWIRQPPGKGLEWIGESNHGGSTNFNPSLKSRVTISVDTSKNHFSLKLSPVTAADTAVYYCTRGGTIFGLKDAFDIWGQGTMVTVSS VL: not shown | – | – | 67.8 | 99.8 | – | no binding | 0.0199 | 0.00138 | 69700 | – | – | – | – | no binding | – | – | – | – | – | –
7 | Telisotuzumab analog (antibody, human IgG1, kappa, V domains shown, Humanized IgG1 against MET) VH: QVQLVQSGAEVKKPGASVKVSCKASGYIFTAYTMHWVRQAPGQGLEWMGWIKPNNGLANYAQKFQGRVTMTRDTSISTAYMELSRLRSDDTAVYYCARSEITTEFDYWGQGTLVTVSS VL: DIVMTQSPDSLAVSLGERATINCKSSESVDSYANSFLHWYQQKPGQPPKLLIYRASTRESGVPDRFSGSGSGTDFTLTISSLQAEDVAVYYCQQSKEDPLTFGGGTKVEIKR | – | – | – | – | – | – | – | – | – | – | – | – | – | – | no binding | 0.000972 | 0.0001 | 103000 | no binding (tested: antigen up to 400 nM) | no binding (tested: antigen up to 400 nM)
